{
  "source": "paper PMC7061307",
  "about": "(Molecular cell, 2019)",
  "binders": {"B1": {"name": "TATA-box binding protein (TBP): TBP3X-T114A (protein)", "parent chain": "MDQNNSLPPYAQGLASPQGAMTPGIPIFSPMMPYGTGLTPQPIQNTNSLSILEEQQRQQQQQQQQQQQQQQQQQQQQQQQQQQQQQQQQQQQQQQAVAAAAVQQSTSQQATQGTSGQAPQLFHSQTLTTAPLPGTTPLYPSPMTPMTPITPATPASESSGIVPQLQNIVSTVNLGCKLDLKTIALRARNAEYNPKRFAAVIMRIREPRTTALIFSSGKMVCTGAKSEEQSRLAARKYARVVQKLGFPAKFLDFKIQNMVGSCDVKFPIRLEGLVLTHQQFSSYEPELFPGLIYRMIKPRIVLLIFVSGKVVLTGAKVRAEIYEAFENIYPILKGFRKTT"}, "B2": {"name": "B-TFIID TATA-Box Binding Protein Associated Factor 1 (BTAF1), endogenous human (natural protein, UniProt O14981 1-1849, looked up)", "chain": "MAVSRLDRLFILLDTGTTPVTRKAAAQQLGEVVKLHPHELNNLLSKVLIYLRSANWDTRIAAGQAVEAIVKNVPEWNPVPRTRQEPTSESSMEDSPTTERLNFDRFDICRLLQHGASLLGSAGAEFEVQDEKSGEVDPKERIARQRKLLQKKLGLNMGEAIGMSTEELFNDEDLDYTPTSASFVNKQPTLQAAELIDSEFRAGMSNRQKNKAKRMAKLFAKQRSRDAVETNEKSNDSTDGEPEEKRRKIANVVINQSANDSKVLIDNIPDSSSLIEETNEWPLESFCEELCNDLFNPSWEVRHGAGTGLREILKAHGKSGGKMGDSTLEEMIQQHQEWLEDLVIRLLCVFALDRFGDFVSDEVVAPVRETCAQTLGVVLKHMNETGVHKTVDVLLKLLTQEQWEVRHGGLLGIKYALAVRQDVINTLLPKVLTRIIEGLQDLDDDVRAVAAASLVPVVESLVYLQTQKVPFIINTLWDALLELDDLTASTNSIMTLLSSLLTYPQVQQCSIQQSLTVLVPRVWPFLHHTISSVRRAALETLFTLLSTQDQNSSSWLIPILPDMLRHIFQFCVLESSQEILDLIHKVWMELLSKASVQYVVAAACPWMGAWLCLMMQPSHLPIDLNMLLEVKARAKEKTGGKVRQGQSQNKEVLQEYIAGADTIMEDPATRDFVVMRARMMAAKLLGALCCCICDPGVNVVTQEIKPAESLGQLLLFHLNSKSALQRISVALVICEWAALQKECKAVTLAVQPRLLDILSEHLYYDEIAVPFTRMQNECKQLISSLADVHIEVGNRVNNNVLTIDQASDLVTTVFNEATSSFDLNPQVLQQLDSKRQQVQMTVTETNQEWQVLQLRVHTFAACAVVSLQQLPEKLNPIIKPLMETIKKEENTLVQNYAAQCIAKLLQQCTTRTPCPNSKIIKNLCSSLCVDPYLTPCVTCPVPTQSGQENSKGSTSEKDGMHHTVTKHRGIITLYRHQKAAFAITSRRGPTPKAVKAQIADLPAGSSGNILVELDEAQKPYLVQRRGAEFALTTIVKHFGGEMAVKLPHLWDAMVGPLRNTIDINNFDGKSLLDKGDSPAQELVNSLQVFETAAASMDSELHPLLVQHLPHLYMCLQYPSTAVRHMAARCVGVMSKIATMETMNIFLEKVLPWLGAIDDSVKQEGAIEALACVMEQLDVGIVPYIVLLVVPVLGRMSDQTDSVRFMATQCFATLIRLMPLEAGIPDPPNMSAELIQLKAKERHFLEQLLDGKKLENYKIPVPINAELRKYQQDGVNWLAFLNKYKLHGILCDDMGLGKTLQSICILAGDHCHRAQEYARSKLAECMPLPSLVVCPPTLTGHWVDEVGKFCSREYLNPLHYTGPPTERIRLQHQVKRHNLIVASYDVVRNDIDFFRNIKFNYCILDEGHVIKNGKTKLSKAVKQLTANYRIILSGTPIQNNVLELWSLFDFLMPGFLGTERQFAARYGKPILASRDARSSSREQEAGVLAMDALHRQVLPFLLRRMKEDVLQDLPPKIIQDYYCTLSPLQVQLYEDFAKSRAKCDVDETVSSATLSEETEKPKLKATGHVFQALQYLRKLCNHPALVLTPQHPEFKTTAEKLAVQNSSLHDIQHAPKLSALKQLLLDCGLGNGSTSESGTESVVAQHRILIFCQLKSMLDIVEHDLLKPHLPSVTYLRLDGSIPPGQRHSIVSRFNNDPSIDVLLLTTHVGGLGLNLTGADTVVFVEHDWNPMRDLQAMDRAHRIGQKRVVNVYRLITRGTLEEKIMGLQKFKMNIANTVISQENSSLQSMGTDQLLDLFTLDKDGKAEKADTSTSGKASMKSILENLSDLWDQEQYDSEYSLENFMHSLK"}},
  "key": {"[1]": {"assay": "ChIP-qPCR ± TMG", "settings": "glycan lost; control: TBP3X-WT cells"}, "[2]": {"assay": "IP and anti-phosphothreonine blot", "settings": "glycan lost; control: TBP3X-WT cells"}, "[3]": {"assay": "TBP:BTAF1 interaction under LG, HG, TMG, Ac4SGlcNAc", "settings": "glycan lost; control: TBP3X-WT cells"}, "[4]": {"target": "3XFLAG-TBP T114A (p3XFLAG-cmv10 construct) (human, UniProt P20226 1-339, T114A)", "assay": "co-IP"}},
  "data": [
    {"binder": "B1", "values": [
      {"measurement": "other: TMG-induced rise in promoter occupancy", "setting": "[1]", "result": "abolishes"},
      {"measurement": "other: TBP phosphorylation", "setting": "[2]", "result": "no change"},
      {"measurement": "other: response of BTAF1 binding to glucose/TMG/Ac4SGlcNAc", "setting": "[3]", "result": "abolishes"}
    ]},
    {"binder": "B2", "values": [
      {"measurement": "fold amount of BTAF1 co-IPed against TBP^WT", "setting": "[4]", "result": "~3", "unit": "fold"}
    ]}
  ]
}
